Reference: publication PMC11382887, “Molecular mechanism of HNF-1A–mediated HNF4A gene regulation and promoter-driven HNF4A-MODY diabetes”

Key:
[1] = target: T1, HNF-1A DD-DBD (HNF-1A 1-279) (UniProt P20823 1-279); assay: BLI; ITC: 20 mM HEPES pH 7.5, 200 mM NaCl, 1 mM TCEP, 30 C, 250 uM dsDNA into 50 uM protein; BLI: streptavidin sensor with BiotinTEG dsDNA, buffer not in material; details: protein: recombinant; tags: His6 removed by TEV; chain copies: 2; label: 5' BiotinTEG on forward strand; blunt
T1 sequence (P20823 1-279): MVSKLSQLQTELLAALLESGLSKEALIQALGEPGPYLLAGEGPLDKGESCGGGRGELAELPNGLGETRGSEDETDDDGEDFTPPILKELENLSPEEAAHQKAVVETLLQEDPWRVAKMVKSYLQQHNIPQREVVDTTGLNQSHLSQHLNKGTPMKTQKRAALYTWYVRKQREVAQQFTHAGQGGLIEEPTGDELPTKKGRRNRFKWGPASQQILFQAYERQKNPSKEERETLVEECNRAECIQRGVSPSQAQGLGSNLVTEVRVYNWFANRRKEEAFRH

[2] = target: T1, HNF-1A DD-DBD (HNF-1A 1-279); assay: ITC; text refers to ref 36; Methods also list RA among the titrations done here; ITC: 20 mM HEPES pH 7.5, 200 mM NaCl, 1 mM TCEP, 30 C, 250 uM dsDNA into 50 uM protein; BLI: streptavidin sensor with BiotinTEG dsDNA, buffer not in material; details: protein: recombinant; tags: His6 removed by TEV; chain copies: 2; label: 5' BiotinTEG on forward strand (BLI only); blunt
[3] = target: T1, HNF-1A DD-DBD (HNF-1A 1-279); assay: ITC; ITC: 20 mM HEPES pH 7.5, 200 mM NaCl, 1 mM TCEP, 30 C, 250 uM dsDNA into 50 uM protein; BLI: streptavidin sensor with BiotinTEG dsDNA, buffer not in material; details: protein: recombinant; tags: His6 removed by TEV; chain copies: 2; label: 5' BiotinTEG on forward strand (BLI only); blunt
[4] = target: T1, HNF-1A DD-DBD (HNF-1A 1-279); assay: BLI; kinetic Kd (koff/kon); kon ~3x lower, koff ~3x higher; ITC: 20 mM HEPES pH 7.5, 200 mM NaCl, 1 mM TCEP, 30 C, 250 uM dsDNA into 50 uM protein; BLI: streptavidin sensor with BiotinTEG dsDNA, buffer not in material; details: protein: recombinant; tags: His6 removed by TEV; chain copies: 2; label: 5' BiotinTEG on forward strand (BLI only); blunt
[5] = target: T1, HNF-1A DD-DBD (HNF-1A 1-279); assay: BLI; kinetic Kd (koff/kon); ITC: 20 mM HEPES pH 7.5, 200 mM NaCl, 1 mM TCEP, 30 C, 250 uM dsDNA into 50 uM protein; BLI: streptavidin sensor with BiotinTEG dsDNA, buffer not in material; details: protein: recombinant; tags: His6 removed by TEV; chain copies: 2; label: 5' BiotinTEG on forward strand (BLI only); blunt
[6] = target: T1, HNF-1A DD-DBD (HNF-1A 1-279); assay: ITC; 2:1 protein:DNA stoichiometry; ITC: 20 mM HEPES pH 7.5, 200 mM NaCl, 1 mM TCEP, 30 C, 250 uM dsDNA into 50 uM protein; BLI: streptavidin sensor with BiotinTEG dsDNA, buffer not in material; details: protein: recombinant; tags: His6 removed by TEV; chain copies: 2; label: 5' BiotinTEG on forward strand (BLI only); blunt
[7] = target: T1, HNF-1A DD-DBD (HNF-1A 1-279); assay: ITC; increase vs WT not significant; ITC: 20 mM HEPES pH 7.5, 200 mM NaCl, 1 mM TCEP, 30 C, 250 uM dsDNA into 50 uM protein; BLI: streptavidin sensor with BiotinTEG dsDNA, buffer not in material; details: protein: recombinant; tags: His6 removed by TEV; chain copies: 2; label: 5' BiotinTEG on forward strand (BLI only); blunt

B1: Randomized sequence (dsDNA)
DNA 1: TCATCATATCATGCTATAAAT
DNA 2: ATTTATAGCATGATATGATGA
B1: no binding [1].

B2: RA (rat albumin promoter) (dsDNA)
DNA 1: CTTGGTTAATAATTCACCAGA
DNA 2: TCTGGTGAATTATTAACCAAG
For B2, the Kd [2] was 100 ± 50 nM.

B3: P2 -181G>T (dsDNA)
DNA 1: ACTGTTTACTCTTTAACGTAT
DNA 2: ATACGTTAAAGAGTAAACAGT
With B3 the Kd [3] was 700 nM and the binding signal [4] was ~10 fold Kd vs P2 WT.

B4: P2 -169C>T (dsDNA)
DNA 1: ACTGGTTACTCTTTAATGTAT
DNA 2: ATACATTAAAGAGTAACCAGT
B4 was tested, and the Kd [3] was 1200 nM and the “Kd fold change vs P2 WT” value [5] was ~5 fold Kd vs P2 WT.

B5: P2 WT (P2-HNF4A promoter) (dsDNA)
DNA 1: ACTGGTTACTCTTTAACGTAT
DNA 2: ATACGTTAAAGAGTAACCAGT
For B5, the Kd [6] was 304 ± 134 nM.

B6: P2 -181G>A (dsDNA)
DNA 1: ACTGATTACTCTTTAACGTAT
DNA 2: ATACGTTAAAGAGTAATCAGT
Binder B6 has a Kd [7] of 600 nM.
